# No end group written: not given here.
# Assays:
# [1] = target: T1, Glutaminase Interacting Protein (GIP), recombinant (UniProt O14907 1-124); test: NMR titration
# T1 sequence (looked up): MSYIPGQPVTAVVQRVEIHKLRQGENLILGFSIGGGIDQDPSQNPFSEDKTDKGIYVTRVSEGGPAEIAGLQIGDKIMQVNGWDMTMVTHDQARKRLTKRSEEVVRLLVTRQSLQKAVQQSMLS
# [2] = target: T1, Glutaminase Interacting Protein (GIP), …; test: NMR titration; remark: listed apart in the source
binder,measurement,setting,value
RDGDFQTEV-OH [BAI2 C-terminal peptide (RDGDFQTEV-COOH)],KD from residue A66 of GIP,[1],86.6 µM
same,KD from residue D38 of GIP,[1],92.5 µM
same,KD from residue E17 of GIP,[1],64.8 µM
same,KD from residue E62 of GIP,[1],102 µM
same,KD from residue E102 of GIP,[1],118 µM
same,KD from residue F46 of GIP,[1],138 µM
same,KD from residue L71 of GIP,[1],85.8 µM
same,KD from residue N81 of GIP,[1],84.3 µM
same,KD from residue T86 of GIP,[1],104 µM
same,Kd,[2],97.8 µM
